Laboratory results from US20040258682A1.

Columns and labels:
[1] = biological target: CD22, the LL2 antigen on the surface of Raji B-lymphoma cells (UniProt P20273); assay: Raji cell binding assay
[2] = biological target: CD22, the LL2 antigen on the surface of Raji B-lymphoma cells (UniProt P20273); assay: cell-based or functional assay
[3] = biological target: CD22, the LL2 antigen on the surface of Raji B-lymphoma cells (UniProt P20273); assay: cell surface binding assay, calculated from ID50 values
[4] = biological target: WN, LL2 anti-idiotype antibody; assay: WN competitive blocking assay, F(ab′)2 competing with mLL2; parameters: unit not given beside the values
[5] = biological target: WN, LL2 anti-idiotype antibody; assay: WN competitive blocking assay, from ID50 against unmodified control F(ab′)2

Work on “DOX-LL2 (doxorubicin-dextran-LL2 F(ab′)2 conjugate of Example 9)” yielded an immunoreactivity (% of control values) [1] of 80%.

For “cLL2Q (chimeric LL2 with the NVT to QVT mutation in VK FR1) (antibody)”, the rate of antibody internalization (Ke) by Raji cells [2] was 0.122.

In the case of mLL2 F(ab′)2 fragment, the Immunoreactivity (%), cell binding [3] is reported as 100%.

With “mLL2 F(ab′)2 fragment conjugated with dextran-DOX at the VK-appended carbohydrate” the Immunoreactivity (%), cell binding [3] was 41.9%.

In the case of murine LL2 monoclonal antibody, the rate of antibody internalization (Ke) by Raji cells [2] is reported as 0.107.

B1: hLL2 F(ab′)2 fragment (protein, INN chains, looked up)
VH: QVQLVQSGAEVKKPGSSVKVSCKASGYTFTSYWLHWVRQAPGQGLEWIGYINPRNDYTEYNQNFKDKATITADESTNTAYMELSSLRSEDTAFYFCARRDITTFYWGQGTTVTVSS
VL: DIQLTQSPSSLSASVGDRVTMSCKSSQSVLYSANHKNYLAWYQQKPGKAPKLLIYWASTRESGVPSRFSGSGSGTDFTFTISSLQPEDIATYYCHQYLSSWTFGGGTKLEIK
modifications: F(ab')2
For B1, the ID50 [4] was 0.384 and the Immunoreactivity, % of hLL2 [5] was 100%.
